For one substance, stoichiometry N results are on record in publication PMC10950269.

The assay addresses Recombinant truncated NA protein from the A/Perth/16/2009 H3N2 strain of influenza virus (influenza A virus A/Perth/16/2009 (H3N2)). Briefly: SEC. For orientation: In gel filtration, larger molecules generally elute earlier.

A word on the stoichiometry N: it is a count of units in the complex or per binding partner. For “Recombinant truncated NA protein from the A/Perth/16/2009 H3N2 strain of influenza virus (enzyme)”, the stoichiometry N is 4.
